Assay results from patent US20240366811A1, “RA[…] P[…] USES THEREOF” (TIANJIN CONJUSTAR BIOLOGICS CO., LTD., priority 2023, published 2024).
Like-named read-outs stand apart in the source and are kept apart here. *1 amine or outer side, *2 acyl side, *3 side chain or, on linkers, in order; H or OH if unused. Where a SMILES comes first, the peptide text is derived from it. Bridges are numbered along the chain shown (N, C = ends). [ ]: non-standard residue; d: D form. The star is where a group is joined. TATA = O=C(CC[*:1])N1CN(C(=O)CC[*:2])CN(C(=O)CC[*:3])C1; NOTA = O=C(O)CN1CCN(CC(=O)O)CCN(CC(=O)*)CC1; Hyp = O=C(O)[C@@H]1C[C@@H](O)CN1; hArg = N=C(N)NCCCC[C@H](N)C(=O)O; Pen = CC(C)(S)[C@H](N)C(=O)O; βAla = NCCC(=O)O; Sar = CNCC(=O)O

Experiments:
PC-3 tumor-bearing mice = conditions: 4 h, dissected tissue uptake ratio;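 also: dissected tissues were weighed and their radioactivity counted, uptake given as percent of administered dose per gram, tissue ratios derived from these values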
Experimental: In vivo radiobiological distribution assay: mice in the PET/CT imaging group were sacrificed immediately after the end of 4 h imaging, and mice in the inhibition group were sacrificed after 1 h imaging. Tissue samples of tumor, blood, heart, lung, liver, spleen, kidney, stomach, intestine, bone, muscle, and brain were collected by dissection, weighed and their radioactive counts were recorded. The probe uptake value in each tissue and organ of each experimental animal is expressed as radioactivity per gram of tissue as a percentage of the dose administered (% ID/g).

in vivo = conditions: nude, mouse, iv, 11.1 MBq, total radioactivity
Experimental: The tissue distribution characteristics of the compounds in PC-3 tumor-bearing mice were studied by using the PC-3 tumor-bearing mice model, small animal PET/CT scans were performed at different time points after a single intravenous administration of the compounds, tumors and other regions of interest were delineated to obtain radioactive uptake values.
Tumor cells in the logarithmic growth phase were used for in vivo tumor inoculation. PC-3 cells were suspended in saline at a density of 5×10^6/mL, and a total of 15 nude mice were inoculated under the right flank at 0.1 mL per inoculation point. Imaging and biodistribution experiments were performed when tumors grew to 300-600 mm^3 (tumor volume measurement method: the long diameter and short diameter of the tumor were measured, and its volume calculation formula was: volume=0.5× major diameter× minor diameter^2). The drug was distributed according to the animal dose on the drug distribution table, and a certain volume of compound diluent was absorbed by a 1 mL insulin syringe, and the initial radioactive dose and initial dosimetry time were recorded. The injection time, residual radioactivity dose, and residual dose determination time were recorded after tail vein injection in tumor-bearing mice. […] PET/CT scans of animals were performed at different time points after administration. During the scanning process, the animals continued to inhale 1-2% isoflurane to maintain the anesthetic effect, and the scanning time was recorded. […] After the completion of PET/CT scanning, the images were reconstructed and the images and data were processed with the software of the device. The tumor, heart (including contents), kidney, intestine, and muscle were delineated as regions of interest. The percentage injection dose rate per gram of tissue in the area of interest (% ID/g) was obtained. The data of biological distribution was expressed as the percentage of radioactive count per gram of tissue or organ to the total dose (radioactive count) (% ID/g).
Data for each sampling point were expressed as the mean standard deviation (mean SD) of 3 tumor-bearing mice.

Question: Which Tumor/blood (PC-3 tumor-bearing mice; mouse S1) does the source give for CC(C)C[C@@H]1NC(=O)[C@@H]2CSCCC(=O)N3CN(CN(C3)C(=O)CCSC(C)(C)[C@@H](C(N)=O)NC(=O)[C@H](CCCCNC(=N)N)NC(=O)[C@H](Cc3c[nH]c4ccccc34)NC(=O)[C@@H](CC(=O)O)NC(=O)[C@@H]3CCCN3C(=O)[C@H](Cc3c[nH]cn3)NC1=O)C(=O)CCSC[C@H](NC(=O)[C@@H]1CC(=O)NCCCC[C@H](NC(=O)CN(C)C(=O)CN(C)C(=O)CN(C)C(=O)CN(C)C(=O)CN(C)C(=O)CN(C)C(=O)CN(C)C(=O)CN(C)C(=O)CN(C)C(=O)CN(C)C(=O)CCNC(=O)CN3CCN(CC(=O)O)CCN(CC(=O)O)CC3)C(=O)N[C@@H](CCCCNC(=N)N)C(=O)N1)C(=O)N1C[C@H](O)C[C@H]1C(=O)N[C@@H](CC(C)C)C(=O)N[C@@H](C(C)C)C(=O)N[C@@H](CC(N)=O)C(=O)N1CCC[C@H]1C(=O)N[C@@H](CC(C)C)C(=O)N2 [Example 3] ({NOTA-βAla}-[Sar][Sar][Sar][Sar][Sar][Sar][Sar][Sar][Sar][Sar]K[hArg]DC[Hyp]LVNPLCLHP[dD]W[hArg][Pen]-NH2; lactam 11-13; linker 14-21-28 via TATA) here?
Answer: The Tumor/blood was 24.89.

Question: And the Tumor/bone (PC-3 tumor-bearing mice; mouse S1)?
Answer: The Tumor/bone was 4.39.

Question: And the Tumor/brain (PC-3 tumor-bearing mice; mouse S1)?
Answer: The Tumor/brain was 44.40.

Question: What about the Tumor/heart (PC-3 tumor-bearing mice; mouse S1) of the same compound?
Answer: Its Tumor/heart is 16.45.

Question: And the Tumor/intestine (PC-3 tumor-bearing mice; mouse S1)?
Answer: Its Tumor/intestine is 12.02.

Question: And the Tumor/kidney (PC-3 tumor-bearing mice; mouse S1)?
Answer: The Tumor/kidney was 0.08.

Question: What about the Tumor/liver (PC-3 tumor-bearing mice; mouse S1) of the same compound?
Answer: Its Tumor/liver is 7.63.

Question: What about the Tumor/lung (PC-3 tumor-bearing mice; mouse S1) of the same compound?
Answer: The Tumor/lung was 10.25.

Question: And the Tumor/muscle (PC-3 tumor-bearing mice; mouse S1)?
Answer: The Tumor/muscle was 11.01.

Question: And the Tumor/spleen (PC-3 tumor-bearing mice; mouse S1)?
Answer: Its Tumor/spleen is 7.58.

Question: What about the Tumor/stomach (PC-3 tumor-bearing mice; mouse S1) of the same compound?
Answer: Its Tumor/stomach is 22.84.

Question: What about the Tumor/blood (PC-3 tumor-bearing mice; mouse S2) of the same compound?
Answer: Its Tumor/blood is 3.88.

Question: And the Tumor/bone (PC-3 tumor-bearing mice; mouse S2)?
Answer: The Tumor/bone was 1.30.

Question: What about the Tumor/brain (PC-3 tumor-bearing mice; mouse S2) of the same compound?
Answer: The Tumor/brain was 40.18.

Question: What about the Tumor/heart (PC-3 tumor-bearing mice; mouse S2) of the same compound?
Answer: The Tumor/heart was 7.47.

Question: And the Tumor/intestine (PC-3 tumor-bearing mice; mouse S2)?
Answer: Its Tumor/intestine is 7.64.

Question: What about the Tumor/kidney (PC-3 tumor-bearing mice; mouse S2) of the same compound?
Answer: The Tumor/kidney was 0.04.

Question: And the Tumor/liver (PC-3 tumor-bearing mice; mouse S2)?
Answer: The Tumor/liver was 4.34.

Question: What about the Tumor/lung (PC-3 tumor-bearing mice; mouse S2) of the same compound?
Answer: The Tumor/lung was 4.78.

Question: What about the Tumor/muscle (PC-3 tumor-bearing mice; mouse S2) of the same compound?
Answer: The Tumor/muscle was 2.89.

Question: What about the Tumor/spleen (PC-3 tumor-bearing mice; mouse S2) of the same compound?
Answer: Its Tumor/spleen is 4.03.

Question: What about the Tumor/stomach (PC-3 tumor-bearing mice; mouse S2) of the same compound?
Answer: The Tumor/stomach was 14.71.

Question: What about the Tumor/blood (PC-3 tumor-bearing mice; mouse S3) of the same compound?
Answer: Its Tumor/blood is 36.90.

Question: What about the Tumor/bone (PC-3 tumor-bearing mice; mouse S3) of the same compound?
Answer: The Tumor/bone was 7.02.

Question: And the Tumor/brain (PC-3 tumor-bearing mice; mouse S3)?
Answer: The Tumor/brain was 91.90.

Question: What about the Tumor/heart (PC-3 tumor-bearing mice; mouse S3) of the same compound?
Answer: The Tumor/heart was 30.12.

Question: And the Tumor/intestine (PC-3 tumor-bearing mice; mouse S3)?
Answer: The Tumor/intestine was 27.31.

Question: And the Tumor/kidney (PC-3 tumor-bearing mice; mouse S3)?
Answer: The Tumor/kidney was 0.10.

Question: What about the Tumor/liver (PC-3 tumor-bearing mice; mouse S3) of the same compound?
Answer: The Tumor/liver was 8.30.

Question: And the Tumor/lung (PC-3 tumor-bearing mice; mouse S3)?
Answer: Its Tumor/lung is 19.01.

Question: And the Tumor/muscle (PC-3 tumor-bearing mice; mouse S3)?
Answer: The Tumor/muscle was 19.97.

Question: And the Tumor/spleen (PC-3 tumor-bearing mice; mouse S3)?
Answer: The Tumor/spleen was 10.00.

Question: And the Tumor/stomach (PC-3 tumor-bearing mice; mouse S3)?
Answer: Its Tumor/stomach is 34.54.

Question: What about the tissue uptake at 2 min (in vivo; heart (including contents)) of the same compound?
Answer: The tissue uptake at 2 min was 3.35 ± 0.35 %ID/g.

Question: And the tissue uptake at 5 min (in vivo; heart (including contents))?
Answer: The tissue uptake at 5 min was 2.95 ± 0.63 %ID/g.

Question: What about the tissue uptake at 8 min (in vivo; heart (including contents)) of the same compound?
Answer: Its tissue uptake at 8 min is 2.59 ± 0.67 %ID/g.

Question: What about the tissue uptake at 11 min (in vivo; heart (including contents)) of the same compound?
Answer: The tissue uptake at 11 min was 2.18 ± 0.51 %ID/g.

Question: What about the tissue uptake at 14 min (in vivo; heart (including contents)) of the same compound?
Answer: The tissue uptake at 14 min was 1.86 ± 0.41 %ID/g.

Question: What about the tissue uptake at 17 min (in vivo; heart (including contents)) of the same compound?
Answer: Its tissue uptake at 17 min is 1.65 ± 0.38 %ID/g.

Question: And the tissue uptake at 20 min (in vivo; heart (including contents))?
Answer: The tissue uptake at 20 min was 1.51 ± 0.36 %ID/g.

Question: What about the tissue uptake at 23 min (in vivo; heart (including contents)) of the same compound?
Answer: Its tissue uptake at 23 min is 1.41 ± 0.31 %ID/g.

Question: What about the tissue uptake at 26 min (in vivo; heart (including contents)) of the same compound?
Answer: The tissue uptake at 26 min was 1.28 ± 0.3 %ID/g.

Question: What about the tissue uptake at 29 min (in vivo; heart (including contents)) of the same compound?
Answer: The tissue uptake at 29 min was 1.18 ± 0.24 %ID/g.

Question: And the tissue uptake at 0.5 h (in vivo; heart (including contents))?
Answer: The tissue uptake at 0.5 h was 1.21 ± 0.3 %ID/g.

Question: And the tissue uptake at 1 h (in vivo; heart (including contents))?
Answer: Its tissue uptake at 1 h is 0.65 ± 0.25 %ID/g.

Question: And the tissue uptake at 2 h (in vivo; heart (including contents))?
Answer: The tissue uptake at 2 h was 0.15 ± 0.06 %ID/g.

Question: What about the tissue uptake at 4 h (in vivo; heart (including contents)) of the same compound?
Answer: Its tissue uptake at 4 h is 0.06 ± 0.02 %ID/g.

Question: What about the tissue uptake at 2 min (in vivo; kidney) of the same compound?
Answer: The tissue uptake at 2 min was 15 ± 0.64 %ID/g.

Question: What about the tissue uptake at 5 min (in vivo; kidney) of the same compound?
Answer: Its tissue uptake at 5 min is 14.6 ± 2.02 %ID/g.

Question: What about the tissue uptake at 8 min (in vivo; kidney) of the same compound?
Answer: The tissue uptake at 8 min was 14.9 ± 2.94 %ID/g.

Question: What about the tissue uptake at 11 min (in vivo; kidney) of the same compound?
Answer: Its tissue uptake at 11 min is 15.2 ± 2.41 %ID/g.

Question: And the tissue uptake at 14 min (in vivo; kidney)?
Answer: Its tissue uptake at 14 min is 15.1 ± 2.42 %ID/g.

Question: What about the tissue uptake at 17 min (in vivo; kidney) of the same compound?
Answer: Its tissue uptake at 17 min is 14.4 ± 2.34 %ID/g.

Question: What about the tissue uptake at 20 min (in vivo; kidney) of the same compound?
Answer: The tissue uptake at 20 min was 14.4 ± 2.61 %ID/g.

Question: And the tissue uptake at 23 min (in vivo; kidney)?
Answer: The tissue uptake at 23 min was 13.9 ± 2.02 %ID/g.

Question: What about the tissue uptake at 26 min (in vivo; kidney) of the same compound?
Answer: The tissue uptake at 26 min was 12.5 ± 1.35 %ID/g.

Question: And the tissue uptake at 29 min (in vivo; kidney)?
Answer: The tissue uptake at 29 min was 11.5 ± 0.94 %ID/g.

Question: And the tissue uptake at 0.5 h (in vivo; kidney)?
Answer: Its tissue uptake at 0.5 h is 11.6 ± 1.26 %ID/g.

Question: What about the tissue uptake at 1 h (in vivo; kidney) of the same compound?
Answer: Its tissue uptake at 1 h is 9.68 ± 0.18 %ID/g.

Question: And the tissue uptake at 2 h (in vivo; kidney)?
Answer: The tissue uptake at 2 h was 8.82 ± 0.68 %ID/g.

Question: What about the tissue uptake at 4 h (in vivo; kidney) of the same compound?
Answer: Its tissue uptake at 4 h is 8.03 ± 0.35 %ID/g.

Question: And the tissue uptake at 2 min (in vivo; liver)?
Answer: Its tissue uptake at 2 min is 2.62 ± 0.25 %ID/g.

Question: And the tissue uptake at 5 min (in vivo; liver)?
Answer: The tissue uptake at 5 min was 2.22 ± 0.41 %ID/g.

Question: And the tissue uptake at 8 min (in vivo; liver)?
Answer: Its tissue uptake at 8 min is 1.94 ± 0.35 %ID/g.

Question: What about the tissue uptake at 11 min (in vivo; liver) of the same compound?
Answer: The tissue uptake at 11 min was 1.6 ± 0.23 %ID/g.

Question: And the tissue uptake at 14 min (in vivo; liver)?
Answer: Its tissue uptake at 14 min is 1.44 ± 0.23 %ID/g.

Question: What about the tissue uptake at 17 min (in vivo; liver) of the same compound?
Answer: Its tissue uptake at 17 min is 1.23 ± 0.15 %ID/g.

Question: And the tissue uptake at 20 min (in vivo; liver)?
Answer: Its tissue uptake at 20 min is 1.14 ± 0.14 %ID/g.

Question: What about the tissue uptake at 23 min (in vivo; liver) of the same compound?
Answer: Its tissue uptake at 23 min is 1.07 ± 0.14 %ID/g.

Question: And the tissue uptake at 26 min (in vivo; liver)?
Answer: The tissue uptake at 26 min was 0.97 ± 0.16 %ID/g.

Question: And the tissue uptake at 29 min (in vivo; liver)?
Answer: The tissue uptake at 29 min was 0.91 ± 0.1 %ID/g.

Question: What about the tissue uptake at 0.5 h (in vivo; liver) of the same compound?
Answer: The tissue uptake at 0.5 h was 0.92 ± 0.07 %ID/g.

Question: What about the tissue uptake at 1 h (in vivo; liver) of the same compound?
Answer: The tissue uptake at 1 h was 0.59 ± 0.21 %ID/g.

Question: What about the tissue uptake at 2 h (in vivo; liver) of the same compound?
Answer: Its tissue uptake at 2 h is 0.22 ± 0.04 %ID/g.

Question: What about the tissue uptake at 4 h (in vivo; liver) of the same compound?
Answer: Its tissue uptake at 4 h is 0.13 ± 0.05 %ID/g.

Question: And the tissue uptake at 2 min (in vivo; muscle)?
Answer: Its tissue uptake at 2 min is 1.06 ± 0.1 %ID/g.

Question: And the tissue uptake at 5 min (in vivo; muscle)?
Answer: Its tissue uptake at 5 min is 1.02 ± 0.18 %ID/g.

Question: What about the tissue uptake at 8 min (in vivo; muscle) of the same compound?
Answer: The tissue uptake at 8 min was 0.97 ± 0.16 %ID/g.

Question: What about the tissue uptake at 11 min (in vivo; muscle) of the same compound?
Answer: Its tissue uptake at 11 min is 0.91 ± 0.19 %ID/g.

Question: What about the tissue uptake at 14 min (in vivo; muscle) of the same compound?
Answer: The tissue uptake at 14 min was 0.82 ± 0.12 %ID/g.

Question: And the tissue uptake at 17 min (in vivo; muscle)?
Answer: Its tissue uptake at 17 min is 0.74 ± 0.13 %ID/g.

Question: What about the tissue uptake at 20 min (in vivo; muscle) of the same compound?
Answer: The tissue uptake at 20 min was 0.69 ± 0.11 %ID/g.

Question: And the tissue uptake at 23 min (in vivo; muscle)?
Answer: Its tissue uptake at 23 min is 0.66 ± 0.14 %ID/g.

Question: And the tissue uptake at 26 min (in vivo; muscle)?
Answer: The tissue uptake at 26 min was 0.67 ± 0.16 %ID/g.

Question: And the tissue uptake at 29 min (in vivo; muscle)?
Answer: Its tissue uptake at 29 min is 0.56 ± 0.11 %ID/g.

Question: And the tissue uptake at 0.5 h (in vivo; muscle)?
Answer: Its tissue uptake at 0.5 h is 0.55 ± 0.15 %ID/g.

Question: And the tissue uptake at 1 h (in vivo; muscle)?
Answer: The tissue uptake at 1 h was 0.26 ± 0.05 %ID/g.
